Data on ten molecules can be found in US11560566B2, “Aptazyme-embedded guide RNAs for use with CRISPR-Cas9 in genome editing and transcriptional activation” (President and Fellows of Harvard College, priority 2017, dated 2023).

The subject of data set [1] is FANCF site. Briefly: Theophylline-dependent base editing (BE3), FANCF site. In kind it is cell-based, human. The conditions noted are these: ligand concentration 4 mM. The text has this:
Cells were harvested 3 days after transfection.

In data set [2] the test system is GFP gene (modified promoter) in HEK293T cells. Briefly: Transcriptional activation of GFP reporter with dCas9-VPR in HEK293T cells. The class given is cell-based, human. The text has this: In addition to genome editing, transcriptional regulation is another widely used application of CRISPR-Cas9^4. To further explore the utility of agRNAs, we sought to develop an agRNA that responds to a different small-molecule ligand and activates the expression of a guide RNA-specified target gene, rather than editing a target gene through DNA cleavage. A previously reported guanine-aptazyme^24 that contains a naturally occurring guanine aptamer^25 was incorporated into the guide RNA and the resulting guanine-agRNA was tested for its ability to activate transcription of a GFP gene in HEK293T cells (FIG. 3c). […] In the presence of an active guide RNA, dCas9-VPR initiates transcription of GFP, ultimately resulting in cell fluorescence.
(§1) To each well in a 48-well plate, 200 ng of dCas9-VPR plasmid, 0.5 ng of guide RNA plasmid and 60 ng of reporter plasmid were transfected using 1.2 μL Lipofectamine 2000. […] Cells were harvested 20 h after transfection.

The subject of data set [3] is endogenous GFP locus in HEK293-GFP cells. The text has this:
To compare the activities of the guide RNAs with the blocking region either present or removed, a non-cleaving “dead” variant of HHR-bsgRNA (dHHR-bsgRNA) containing a single A to G point mutation in the catalytic loop of the hammerhead ribozyme was produced. To optimize the restoration of guide RNA activity by self-cleavage of the hammerhead ribozyme, the length of the blocking sequence was varied. Three sets of HHR-bsgRNAs and dHHR-bsgRNAs with blocking sequences of 10 to 17 nucleotides were constructed. The genome editing activities of these sgRNA variants in the presence of Cas9 in human embryonic kidney cells harboring genomic GFP genes (HEK293-GFP) were assayed by targeting the endogenous GFP locus (FIG. 2a).
HEK293 cells with integrated GFP genes (GenTarget Inc.) were cultured in 48-well plates (40,000 cells seeded per well) in Dulbecco's Modified Eagle's Media plus GlutaMAX (DMEM, Life Technologies) with 10% FBS. Plasmids were transfected ˜20 h after plating when cells reached ˜70% confluence. To edit the GFP genes in HEK293 cells, 100 ng of Cas9 plasmid and 2 ng of guide RNA plasmid were transfected in each well using 1.2 μL Lipofectamine 2000 (Life Technologies) following the manufacturer's protocol. To distinguish transfected cells from non-transfected cells, 2 ng of an iRFP expression plasmid was co-transfected. A stock solution of 100 mM theophylline was made in 60 mM NaOH and was supplied to cells 6 h after plasmid transfection at designed concentrations. The cells were incubated for additional 7 days before analysis and media was changed at day 3, 5 and 6. Fresh theophylline was supplied immediately at the same concentration as in the initial condition each time the media was changed. GFP fluorescence was quantified by flow cytometry and the transfected live population was gated by iRFP signal.

Data set [4] concerns RFP reporter in HEK293T cells. Briefly: Transcriptional activation of RFP reporter with dCas9-VPR in HEK293T cells. In kind it is cell-based, human. The conditions noted are these: different spacer sequence. The protocol:
To further generalize this strategy, we tested the guanine-agRNA with three bulges for RFP activation in HEK293T cells with a different spacer sequence that is unrelated to the spacer used to target GFP.
as §1

The test system of data set [5] is target dsDNA (full GFP gene). The experiment in a line: In vitro DNA cleavage assay (Cas9 + guide RNA). To be noted: 10 nM target DNA, 100 nM guide RNA, 100 nM Cas9, 37° C.; for target DNA cleavage followed by gel electrophoresis: 1 h for sgRNA variants, 5 h for crRNA and tracrRNA variants. The class given is biochemical. The protocol: The blocker-linked guide RNAs were prepared by in vitro transcription and incubated in vitro with Cas9 protein and a target dsDNA. Target DNA cleavage was followed by gel electrophoresis (FIG. 1b).
SpCas9 protein was purified as previously described^1,35. Guide RNAs were transcribed using a T7 High Yield RNA Synthesis Kit (NEB) following the manufacturer's protocol, and purified with the E.Z.N.A. PF miRNA Isolation Kit (Omega Bio-tek, Inc.). The target dsDNA (full GFP gene) was amplified by polymerase chain reaction and purified using QlAquick PCR Purification Kit (QIAGEN). For the cleavage reaction, 10 nM of the target DNA was incubated with 100 nM of the guide RNA in the presence of 100 nM Cas9 protein in a Cas9 DNA cleavage buffer (150 mM KCl, 10 mM MgCl2, 0.5 mM DTT, 0.1 mM EDTA, 20 mM HEPES pH 7.5). In vitro editing reactions were incubated at 37° C. for 1 h for sgRNA and its variants and the reactions for crRNA and tracrRNA and their variants were incubated at 37° C. for 5 h before being stopped with 6×DNA loading buffer and analyzed by non-denaturing agarose gel electrophoresis.

For `Cn1c(=O)[nH]c(=O)c2[nH]cnc21` [3-methylxanthine], in data set [1], the “response of theophylline-agRNA-mediated base editing to ligand, fold less strongly than to theophylline” value came to 2 fold. Take `Nc1nc2nc[nH]c2c(=O)[nH]1` [guanine, reference compound]: the “effect of guanine on GFP fluorescence” value in data set [2] (guanine in the medium from 0 to 200 μM, cells with (d) guanine-agRNA) is recorded as “slightly reduced GFP fluorescence”.

B1: post-cleavage sgRNA: processed HHR-bsgRNA without the blocking sequence, 11 extra nucleotides at the 5′ end (nucleic acid)
guide: GCUGGAUUCCACGGGCACGGGCAGCUUGCCGGGUUUUAGAGCUAGAAAUAGCAAGUUAAAAUAAGGCUAGUCCGUUAUCAACUUGAAAAAGUGGCACCGAGUCGGUGCUUUUUUU
modifications: chemistry not given here
As for B1, the “activity compared to the unmodified guide RNA” value in data set [3] (HEK293-GFP cells, Cas9, sgRNA with 11 extra nucleotides at the 5′ end) was “maintained most of its activity”.

B2: guanine-agRNA with three bulges: guanine-agRNA with bulged blocker and a different spacer for RFP activation (nucleic acid)
guide: ACUGCGGGAUGGAGGAGACGGUACAUCCAGCUGAUGAGUCCCAAAUAGGACGAAAUACUAUAAUCGCGUGGAUAUGGCACGCAAGUUUCUACCGGGCACCGUAAAUGUCCGACUAGUGUCCUGGAUUCCACGUCCCCUCCACCCCACAGUGGUUUUAGAGCUAGAAAUAGCAAGUUAAAAUAAGGCUAGUCCGUUAUCAACUUGAAAAAGUGGCACCGAGUCGGUGCUUUUUUU
As to B2, the “guanine-dependent RFP activation ratio” value in data set [4] was ~3 fold.

B3: canonical sgRNA: canonical Streptococcus pyogenes single guide RNA targeting GFP, positive control (nucleic acid)
guide: GGGCACGGGCAGCUUGCCGGGUUUUAGAGCUAGAAAUAGCAAGUUAAAAUAAGGCUAGUCCGUUAUCAACUUGAAAAAGUGGCACCGAGUCGGUGCUUUUUUU
modifications: chemistry not given here
notes: canonical Streptococcus pyogenes single guide RNA targeting GFP, positive control
B3: in data set [5] (1 h), the cleavage efficiency is listed as ~100%. For the same molecule, in data set [3] (loss beyond the off-state, 62% vs 48%), the “activity relative to that of the activated agRNA” value amounted to 1.3 fold. In data set [3] (wild-type Cas9), the “loss beyond the off-state” value was determined as 62%. The GFP loss in data set [3] (wild-type Cas9, canonical guide, positive control) was 72%.

B4: blocked crRNA: crRNA with 42-nucleotide linker and 10-nucleotide blocking sequence appended to the 3′ end (nucleic acid)
guide: GGGCACGGGCAGCUUGCCGGGUUUUAGAGCUAUGCUGUUUUGGAUGGCAACCACGUCGCGUCCUGUAGUAGUAUGAUAGCUCUAA
modifications: unmodified RNA
With B4, in data set [5], the “target DNA cleavage followed by gel electrophoresis” value (“target DNA cleavage followed” below) is reported as “partial cleavage of the target DNA”.

B5: blocked tracrRNA: tracrRNA with 42-nucleotide linker and 10-nucleotide blocking sequence appended to the 5′ end (nucleic acid)
chain: GGAUUUUAACUUUAGUAGUAGUAGGCAACCACGUCGCGUCCUAGUAGGCAUAGCAAGUUAAAAUAAGGCUAGUCCGUUAUCAACUUGAAAAAGUGGCACCGAGUCGGUGCUUUUUUU
modifications: unmodified RNA
Regarding B5, the “target DNA cleavage followed” value in data set [5] is “partial cleavage of the target DNA”.

B6: 5′ spacer-blocked sgRNA: sgRNA with 42-nucleotide linker and 6-nucleotide blocking sequence complementary to the spacer at the 5′ end (nucleic acid)
guide: GGUGCCCGUAGUAGUAGUAGCAACCACGUCGCGUCCGUAGUAGUAGUAGGGCACGGGCAGCUUGCCGGGUUUUAGAGCUAGAAAUAGCAAGUUAAAAUAAGGCUAGUCCGUUAUCAACUUGAAAAAGUGGCACCGAGUCGGUGCUUUUUUU
As to B6, the “target DNA cleavage followed” value in data set [5] is given as “no cleavage product could be detected”.

B7: guanine-agRNA: guanine-aptazyme-embedded guide RNA for GFP activation (nucleic acid)
guide: GCAAGCUGCCCGUGCCCGGUACAUCCAGCUGAUGAGUCCCAAAUAGGACGAAAUACUAUAAUCGCGUGGAUAUGGCACGCAAGUUUCUACCGGGCACCGUAAAUGUCCGACUAGUGUCCUGGAUUCCACGGGCACGGGCAGCUUGCCGGGUUUUAGAGCUAGAAAUAGCAAGUUAAAAUAAGGCUAGUCCGUUAUCAACUUGAAAAAGUGGCACCGAGUCGGUGCUUUUUUU
With B7, the “off-state activity (GFP fluorescence)” value in data set [2] (absence of guanine, compared to control cells lacking any guide RNA) is on record as “elevated GFP fluorescence”. Also, the “activation of GFP fluorescence” value in data set [2] (guanine added to media at 50 μM) stood at 5 fold.

B8: (d) guanine-agRNA: non-splicing mutant of guanine-agRNA (nucleic acid)
chain: GCAAGCUGCCCGUGCCCGGUACAUCCAGCUGAUGAGUCCCAAAUAGGACGAGAUACUAUAAUCGCGUGGAUAUGGCACGCAAGUUUCUACCGGGCACCGUAAAUGUCCGACUAGUGUCCUGGAUUCCACGGGCACGGGCAGCUUGCCGGGUUUUAGAGCUAGAAAUAGCAAGUUAAAAUAAGGCUAGUCCGUUAUCAACUUGAAAAAGUGGCACCGAGUCGGUGCUUUUUUU
B8: the “GFP activation by guanine” value in data set [2] (guanine 50 μM (dHHR-bsgRNA) or different concentrations ((d) guanine-agRNA), dCas9-VPR) is “only a low level of GFP expression that could no longer be activated by guanine”.
